Key:
C/EBP (C/EBPalpha) [1] = molecular target: T1, C/EBP (C/EBPalpha) (Rattus norvegicus, UniProt P05554 P05554:1-358); assay: EMSA; conditions: tags: E. coli pT7-7, about 40 kDa, chain copies: 2
C/EBP (C/EBPalpha) [2] = molecular target: T1, C/EBP (C/EBPalpha); assay: EMSA; C/EBP-BA3 complex; conditions: tags: E. coli pT7-7, about 40 kDa; chain copies: 2; label: 32P
C/EBP (C/EBPalpha) [3] = molecular target: T1, C/EBP (C/EBPalpha); assay: EMSA; text cites SEQ ID NO:41, Table 3 lists AlbD as SEQ ID NO:47; conditions: tags: E. coli pT7-7, about 40 kDa; chain copies: 2; label: 32P

T1 sequence (P05554 whole entry, one chain of several): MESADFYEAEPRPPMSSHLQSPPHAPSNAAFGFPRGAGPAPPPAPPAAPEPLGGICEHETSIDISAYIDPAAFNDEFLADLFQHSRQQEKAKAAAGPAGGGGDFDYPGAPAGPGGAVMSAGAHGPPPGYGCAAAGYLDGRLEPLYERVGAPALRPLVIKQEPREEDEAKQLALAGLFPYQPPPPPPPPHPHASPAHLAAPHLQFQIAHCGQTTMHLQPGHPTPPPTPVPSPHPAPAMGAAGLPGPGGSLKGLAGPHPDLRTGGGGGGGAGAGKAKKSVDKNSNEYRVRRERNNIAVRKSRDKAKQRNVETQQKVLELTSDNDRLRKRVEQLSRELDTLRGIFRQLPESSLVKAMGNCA

B1: apoA-II element K (-760 to -743) (dsDNA)
DNA 1: TAAGGTGATCAAATGACC
DNA 2: GGTCATTTGATCACCTTA
binding result (C/EBP (C/EBPalpha) [1]): no binding

B2: BA3 apoB -78 to -48 (dsDNA)
DNA 1: GCCCTTTGGACCTTTTGCAATCCTGGCGCT
DNA 2: AGCGCCAGGATTGCAAAAGGTCCAAAGGGC
binding result (C/EBP (C/EBPalpha) [2]): binds

B3: CIIIB(WT) apoCIII -92 to -67 (dsDNA)
DNA 1: GGTCAGCAGGTGACCTTTGCCCAGCG
DNA 2: CGCTGGGCAAAGGTCACCTGCTGACC
binding result (C/EBP (C/EBPalpha) [1]; label: 32P, GGG/CCC 5' overhangs): no binding

B4: Albumin D C/EBP site (AlbD, -115 to -90) (dsDNA)
DNA 1: TGGTATGATTTTGTAATGGGGTAGGA
DNA 2: TCCTACCCCATTACAAAATCATACCA
binding result (C/EBP (C/EBPalpha) [3]): binds
